The values below come from the nanobody polyreactivity screen of Harvey et al. (2022).

The nature of this data set: yeast display, Sf9 membrane polyspecificity reagent, FACS + sequencing; frameworks hold sequencing errors. An outline of the steps: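 Polyreactivity labels are assigned by the sorting gate from which each nanobody was recovered. The gates were low and high (top ~1%), set on anti-HA fluorescence for expression and streptavidin fluorescence for reagent binding. Before sorting, galactose-induced (36–48 hours) yeast display cells were stained for 1 hour at 4 °C with 10% biotinylated, detergent-solubilized Sf9 membrane reagent.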
For the sequence “QVQLVESGGGLFQAGGSLRLSCAASGSTFFGYAMGWYRQAPGKERELVAAISSRGGTTNYADSVKGRFTISRDNAKNTVYLQMNSLKPEDNAVYYCNAKDTQEYNRVKYNYWGQGTQVTVSS”, the “polyreactivity (PSR sort gate)” value is given as “high polyreactivity”.
As to “QVQLVESGGGLFQAGGSLRLSCAASGSTFGFYAIGWYRQAPGKERELVARITYSGGSTYYADSVKGRFTISRDNAKITVYLQLNSLIPEDNAVSYCAARSWTHYFRYDYWGQGTQVTVSS”, the “polyreactivity (PSR sort gate)” value is recorded as “high polyreactivity”.
In the case of “QVQLVESGGGLFQAGGSLRLSCAASGSTFRFNAMGWYRQAPGKERELVAAISRSGGTTYYADSVKGRFTISRDNAKNTVYLQMNSLKPEDTAVYYCNAQWWRYWPSQVIFDYWGQGTQVTVSS”, the “polyreactivity (PSR sort gate)” value is reported as “high polyreactivity”.
The same measure for “QVQLVESGGGLFQAGGSLRLSCAASGSTFVWYAMGWYRQAPGKEREFVAANTNSGGSTYYADSVKGRFTISRDTAKNTVYLQMNILKPEDTAVYYCAAQSYYFSYHYDYWGQGTQVTVSS”: “low polyreactivity”; for “QVQLVESGGGLFQAGGSLRLSCAASGSTFYIYAMGWYRHAPGKERELVARITRGGTTYADSVKGRFTISRDNAKNTVYLQMNSLKPEDTAVYYCNAYISDDRYWSPAIEEDYWGQGTQVTVSS”: “high polyreactivity”; for “QVQLVESGGGLFQAGGSLRLSCAASGSTSRYPMGWYRQAQGQERELVAAITRSGGTTYYADSVKGRFTISRDNAKNTVYLQMYSLKPEDTAVYYCATSDRQVKYDYWGQGTQVTVSS”: “low polyreactivity”.
As for “QVQLVESGGGLFQAGGSLRLSCAASGTFYIYAMGWYRQAPGKERELVAGISFSGGSTYYADSVKGRFTISRDNAKNTVYLQMNSLKPEDTAVYYCAAELYVLPYDYWGQGTQVTVSS”, the “polyreactivity (PSR sort gate)” value was “high polyreactivity”.
Then “QVQLVESGGGLFQAGGSLRLSCAPSGRISNKYAMGWYRQAPGKERELVAAISYSGGTTYYADSVKGRFTISRDNAKNTVYLQMNSLKPEDTAGYYCAREWTKGYGYYWGYYWGQGTQVTASS”, with “low polyreactivity”.
Regarding “QVQLVESGGGLFQAGGSLRLSCAPSGSIFQYNAMGWYRQAPGKERELVAAINRRGTRTYYADSVKGRFTISRDNAKNTVYLQMNSLKPEDTAVYYCNKYQSTDVRSSYSAGYGYWGQGTQVTVSS”, the “polyreactivity (PSR sort gate)” value was “high polyreactivity”.
Then “QVQLVESGGGLFQAGGSLRLSCAPSGSNFSIYAMGWYRQAPGKERELVAAITWGGGSTYYADSVKGRFTISRDNAKNTVYLQMNSLKPEETAVYDCAADSLTWYGTYYYWGQGTQVTVSS”, with “high polyreactivity”.
Then “QVQLVESGGGLFQAGGSLRLSCSASGFIFRGYAMGWSRQAPGKERELVAAISTGGGRTYYADSVKGRFTISRDNAKNTVYLQMNSLKPEDTAVYYCNRLSYTQVLMDYWGQGTQVTVSS”, with “high polyreactivity”; and “QVQLVESGGGLFQAGGSLRLSSAASGIIFGYYSLGWYRQAPGKERELVAAINQDGSSTYYADSVKGRFTISRDNAKNTVYLQMNSLNPEDTAVYYCNARGVPRQDDRMGYWGQGTQVTVSS”, with “low polyreactivity”.
The same measure for “QVQLVESGGGLFQAGGSLRLSSAASGIIFSTYAMGWYRQAHGKERELVAAITSTGSTNYADSVKGRFTISRDNAKNTVYLQMNSLKPEDTAVYYCAAEGHTAFLVYRVSPLQYDYWGQGTQVTVSS”: “low polyreactivity”; for “QVQLVESGGGLFQAGVSLTLSFAASGSIFDINAMGWYRQEPWKETDLVAAIRSGDRTHYADSVKGRFTISRDNAMNTVYLQMNSLIPEDTAVYYCAADRFIYLNRELDYWGQGTQVTVSS”: “low polyreactivity”; for “QVQLVESGGGLFQEGGSLRLSCAASGSTFPSYAMGWYRQAPGKERELVAAINSGGGTNYADSVKGRFTISRDNAKNTVYLQMNSLKADDTEVYYCAKSRYDYTKSEGGYWGQGTQVTVSS”: “low polyreactivity”.
Turning to “QVQLVESGGGLFRAGGSLRLICAASGITFYGYAMGWYRQAPGKERELVAAITWSGGRTYYADSVKGRFTISRDNAKNTVYLQMNSMKPEDTAVYYCARRTWHSVGYWGQGTQVTVSS”, the “polyreactivity (PSR sort gate)” value is listed as “high polyreactivity”.
Consider “QVQLVESGGGLGQAGGRLRLTCAASGFTFRPYDMGWYRQAPGKERELVAVIIGGDSTNYADSVQGRFTISRDNAKNTVYLQMNSLKPEDTAVYYCAADYIDRVGWMDYWGQGTQVTVSS”, for which the “polyreactivity (PSR sort gate)” value is “low polyreactivity”.
Then “QVQLVESGGGLGQAGGSLLLSCAASGRIFWCNAMGWTRQAPGKERELVAAIRWSGGSTYYADSVKGRFTISRDNAKNTVYLQMNSLKPEDTAVYYCAASPYWSDWTKVDSWGQGTQVTVSS”, with “low polyreactivity”; and “QVQLVESGGGLGQAGGSLRLSCAASGFIFQANAMGWYRQAPGKERELVAAIDDGDSTYADSVKGRFTISRDNAKNTVYLQMNSLKPEDTAVSYCAPRRNRSYDYWGQGTQVTVSS”, with “low polyreactivity”.
Then “QVQLVESGGGLGQAGGSLRLSCAASGFTFVYYAMGWYRPAPGKERELVAAISSRGGSTNYADSVKGRFTISRDNAKNTVYLQMNSLKPEDTAVYYCATYFSIQRRGDYWGQGTQVTVSS”, with “high polyreactivity”; and “QVQLVESGGGLGQAGGSLRLSCAASGGTFYAYAMGWYRQAPGKEREFVAAISRRGGSTYYADSVKGRFTISRDNAKNTVYLQMHSLKPEDNAVYYCKALYSSSPGAKPWGEYNYWGQGTQVTVSS”, with “high polyreactivity”; and “QVQLVESGGGLGQAGGSLRLSCAASGLIIQPNAMGWYSPAPGKERELVAAISSSDGSTYYADSVKGRFTISRDNAKNTVYLQMNSLKREDSAVYYCAAGYYFQVEPDLVYIYSYEYWGQGTHVTVSS”, with “low polyreactivity”.
The same measure for “QVQLVESGGGLGQAGGSLRLSCAASGRIFFHYAMGWYRPAPGKERELVATITTVGSTYYADSVKGRFTISRDNAKNTVYLQMNSLKPEDTAVYYCAARYISLSGDEYDYWGQGTQVTVSS”: “low polyreactivity”; for “QVQLVESGGGLGQAGGSLRLSCAASGRTFYDNAMGWYRPAPGKERELVAAISSSGSSTYYADSVKGRFTISLDNAKNTVYLQKNSLKPEDTAVYYCSASYTDYYFGFGTDVRYGYWGQGTQVTVSS”: “high polyreactivity”; for “QVQLVESGGGLGQAGGSLRLSCAASGSIFQPYAMGGYRQAPGKERELVAAISSSGGSTTYADSVKGRFTISRDNAKNTVYLQMNSLKPEDTAVYYCAAEYDGPYTWVDYFYHYGYWGQGTQVTVSS”: “low polyreactivity”.
With “QVQLVESGGGLGQAGGSLRLSCAASGSTFEGYAMGWYRQAPGKERELVAAISSSGGRTYYADSVKGRFTISRDNAKNTVYLQMNSLKPEDTAVYYCAADVSTAAVRSDSWGQGTQVTVSS”, the “polyreactivity (PSR sort gate)” value is “low polyreactivity”.
Then “QVQLVESGGGLGQAGGSLRLSCAASGSTFTRYGMGWSRQAPGKERELVAAITTSGSSTYYADSVKGRFTISRDNAKNTVYLQMNSLKPEDTAVYYCAADWSSWGFDYWGQGTQVTVSS”, with “low polyreactivity”; and “QVQLVESGGGLGQAGGSLRLSCPASGITFVYYAMGWYRQSPGKERELVATITKSGVSTYYADSVKGRFTISRDNAKYTVYLQMNSLKPEDTAVYYCAKDVSYRFYWTYDYWGQGTQVTVSS”, with “low polyreactivity”.
Turning to “QVQLVESGGGLGQAGGSLRLTCAASGSTFWYYAMGWYRQAPGKERELVAAITSGDSTYYADSVKGRFTISRDNAKKTVYLQMNSLKPEDTAVYYCAADLPWEDGYYFYSGYTEYDYWGQGTQVTVSS”, the “polyreactivity (PSR sort gate)” value was “low polyreactivity”.
Then “QVQLVESGGGLGQAGGSLSLSCAASGFNFSHYAMGWYIPAPGKERELVAAITRGGSTKYADSVKGRFTISRDNAKNTVDLEMNSLKPEDTAVYYCAKDKTYRNVRGVGYWGQGTQVTVSS”, with “high polyreactivity”; and “QVQLVESGGGLIQAVRSHRLSFAASGSTFRRYAMRWYRQEPGKEREISTSDGSTYYADSVKGRFTISRENAKNTVYLQMNSLKPEDTAVYYCAADGYRKLIEDITDDYCGQGTQVTVSS”, with “low polyreactivity”.
Then “QVQLVESGGGLIQPGGSLRLSCAASGSTFANNAMGWYRQAPGKESELVASISSDGSTNYADSVKGRFTISRDNAKNTVYLQMNSLKPEDTAVYYCAADWYYSADYFHFGYWGQGTQVTVSS”, with “low polyreactivity”.
Then “QVQLVESGGGLLQAGGILRLSCAASGRIFFANAMGWYRQAPGKERELVASITRRSGGTYYADSVKGRFTISRDNAKNTVYLQMNSLKPEDTAVYYCAARYTFPKALYYYWGQGTQVTVSS”, with “high polyreactivity”; and “QVQLVESGGGLLQAGGSHRLSCAASGILVYNAMGWYTQAPGKERELVAAISARGGRTYYADSVKGRFTISRDNAKNTVYLQMNSLKPEDSAVYYCATLETTGVNYWGQGTQVTVSS”, with “high polyreactivity”; and “QVQLVESGGGLLQAGGSLRISCAASGRTLFVYDMGWYRQAPGKERDLVAAITGDGSTNYADSVKGRFTISRDNAKNTVYLQMNSLKPEDPAVYYCNAGDRIGFWNTVEYNYWGQGTQVTVSS”, with “low polyreactivity”.
For the sequence “QVQLVESGGGLLQAGGSLRLICAASGFIFVTYAMGLYRQEPGKERELVAAITNSGGTTYYADSVKGRFTISRDNAKNTVYLQMNSLKPEDTAGYYCNKPYGAETAHREFDYWGQGTQVTVSS”, the “polyreactivity (PSR sort gate)” value is recorded as “low polyreactivity”.
The same measure for “QVQLVESGGGLLQAGGSLRLICAASGITFRYYTMGWYRQAPVKETELVAAITWSGSSTYYADSVKGRFTISRDNAKNTVYLQMNSLKPEDTAVYYCAKPYHQRSAKVDYWGQGTQVTVSS”: “low polyreactivity”; for “QVQLVESGGGLLQAGGSLRLSCAASGFILNAYTMGWYRQAPGKERELVATITINGGSTYYADSVKGRFTISRDNAKNTVYLQMNSLKPEDTAVYYCNADYWYKYDYWGQGTQVTVSS”: “low polyreactivity”; for “QVQLVESGGGLLQAGGSLRLSCAASGFTFRYYAMGWYRQAPGKERELVAAISRSGGSTYYADSVKGRFTISRDNAKNTVYLQMNSLKPEDTAVYYCAADDRYGSRYYYWGQGTQVTVTS”: “high polyreactivity”.
For “QVQLVESGGGLLQAGGSLRLSCAASGGTFSLNVMGWYRQAPGKEREFVATITYSGGSTYYADSVKGRFTISRDNAKNTVYLQMKSLKPEDTAVYYCAASFTYSQVTEPYGYWGQGSQVTVSS”, the “polyreactivity (PSR sort gate)” value is “low polyreactivity”.
Then “QVQLVESGGGLLQAGGSLRLSCAASGHIFRGYTMGWYRPAPGKERELVATITWNGVSTFYADSVKGRFTISRDTAKNTVYLQMNSLKPEDTSVYYCAAYYASHDYSGFWSDTYEYWGQGTQVTVSS”, with “low polyreactivity”.
